In the supplement of paper PMC10065799, “High-throughput profiling of sequence recognition by tyrosine kinases and SH2 domains using bacterial peptide display” (eLife, 2023):

Test system: AncSZ
Assay: phosphorylation enrichment, bacterial display (enrichment ratio); higher = better substrate or ligand; peptides without Tyr show the background
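Also: 11-residue human phosphosite peptides and single-mutation variants displayed on the E. coli surface, counted by deep sequencing, each peptide's frequency after selection divided by its frequency in the unselected input library; frequency after pTyr selection over input frequency; kinase dosed for 20-30% of maximal phosphorylation in three min.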

PGQRVYVVAES [SHH_Y316_R321S] was tested. Which phosphorylation enrichment did it give?
Its phosphorylation enrichment is 1.06.

PVDVAYRHGFF [PLEC_Y2967_R2969H_YF] was tested. Which phosphorylation enrichment did it give?
Its phosphorylation enrichment is 0.482.

Which phosphorylation enrichment does the source give for IGEGTYRTVFK [CDK5_Y15_G16R] here?
The phosphorylation enrichment was 0.542.

Which phosphorylation enrichment does the source give for RNVFFYSFLLK [PTEN_Y178_Y174N_YF] here?
Its phosphorylation enrichment is 1.29.

How did the phosphorylation enrichment turn out when SLQFEYVHFGG [CDC14A_Y591_S589F_YF] was run?
The phosphorylation enrichment was 1.25.

Which phosphorylation enrichment does the source give for ILIFHYAKGQP [MPZ_Y82_S78L] here?
Its phosphorylation enrichment is 1.32.

HISGVYKLPPD [ANGPTL7_Y145_R140H] was tested. Which phosphorylation enrichment did it give?
Its phosphorylation enrichment is 1.79.

With KGRAGYTTVAV [RET_Y752] as the sequence, how does the phosphorylation enrichment read?
Its phosphorylation enrichment is 0.46.

ATARPYRPYII [LRP5_Y1528] was tested. Which phosphorylation enrichment did it give?
The phosphorylation enrichment was 0.675.

Which phosphorylation enrichment does the source give for PSGPAYRGAVP [ASAH1_Y43_T42A] here?
Its phosphorylation enrichment is 0.664.

Which phosphorylation enrichment does the source give for ARGMEYLASKK [FGFR1_Y613] here?
The phosphorylation enrichment was 0.61.

For RKETFYILSCR [GUCY2C_Y681_T682I], which phosphorylation enrichment is on record?
The phosphorylation enrichment was 1.44.

Which phosphorylation enrichment does the source give for RLRKYHLGKYL [KLB_Y906_Y906H] here?
Its phosphorylation enrichment is 0.726.

With FLTQHYDAEPQ [ANG_Y38_K41E] as the sequence, how does the phosphorylation enrichment read?
Its phosphorylation enrichment is 0.853.

With TEQDPYNNIVH [MMUT_Y364_R369H] as the sequence, how does the phosphorylation enrichment read?
The phosphorylation enrichment was 1.05.

Which phosphorylation enrichment does the source give for YSGDCYRIQGR [DDR2_Y741_Y740C] here?
Its phosphorylation enrichment is 0.818.

For LKEIRYPPFTD [ALDH3B2_Y362_H361R_YF], which phosphorylation enrichment is on record?
The phosphorylation enrichment was 2.71.

For DQIDTYELSGG [DNM1_Y354], which phosphorylation enrichment is on record?
Its phosphorylation enrichment is 1.38.

NHFKIYNLCAE [PTEN_Y68_YF] was tested. Which phosphorylation enrichment did it give?
The phosphorylation enrichment was 0.882.

With WQQQSYLDYGI [CTNNB1_Y30_S33Y] as the sequence, how does the phosphorylation enrichment read?
Its phosphorylation enrichment is 1.11.

Which phosphorylation enrichment does the source give for GLSAPYVKIHL [SYT2_Y309_D307A] here?
Its phosphorylation enrichment is 0.747.

For KIVQDYLEKFY [MMP8_Y36_T32I], which phosphorylation enrichment is on record?
Its phosphorylation enrichment is 0.885.

With GVRLFYRVRES [RB1_Y454_M457R_YF] as the sequence, how does the phosphorylation enrichment read?
The phosphorylation enrichment was 1.25.

KVGRVYLFLQP [ITGA2B_Y360_E355K] was tested. Which phosphorylation enrichment did it give?
The phosphorylation enrichment was 1.02.

How did the phosphorylation enrichment turn out when NRVEIYEKTVE [CYFIP1_Y108] was run?
The phosphorylation enrichment was 1.07.

VPLLEYFRDIF [CDAN1_Y712_YF] was tested. Which phosphorylation enrichment did it give?
The phosphorylation enrichment was 1.42.

Which phosphorylation enrichment does the source give for DDHFTYSRYPW [LY75_Y888] here?
Its phosphorylation enrichment is 1.49.

How did the phosphorylation enrichment turn out when LVSCTYQLARG [FGFR2_Y608] was run?
The phosphorylation enrichment was 1.23.

With IHFAIYLLKFS [ARMC9_Y107_YF] as the sequence, how does the phosphorylation enrichment read?
Its phosphorylation enrichment is 0.891.

PPSLSYLSFEG [EXOSC3_Y143_A139P] was tested. Which phosphorylation enrichment did it give?
Its phosphorylation enrichment is 0.756.

Which phosphorylation enrichment does the source give for LNARHYGGLTG [PGAM2_Y92_E89A] here?
The phosphorylation enrichment was 0.585.

KVNKIYHPDFI [LIG3_Y767_Y768H] was tested. Which phosphorylation enrichment did it give?
The phosphorylation enrichment was 0.542.

How did the phosphorylation enrichment turn out when QSPQLYKQMCI [DARS1_Y253] was run?
Its phosphorylation enrichment is 0.881.

Biological target: EPHB1 (UniProt P54762)
Assay: as above

EPHB1, sequence (P54762 whole entry, looked up): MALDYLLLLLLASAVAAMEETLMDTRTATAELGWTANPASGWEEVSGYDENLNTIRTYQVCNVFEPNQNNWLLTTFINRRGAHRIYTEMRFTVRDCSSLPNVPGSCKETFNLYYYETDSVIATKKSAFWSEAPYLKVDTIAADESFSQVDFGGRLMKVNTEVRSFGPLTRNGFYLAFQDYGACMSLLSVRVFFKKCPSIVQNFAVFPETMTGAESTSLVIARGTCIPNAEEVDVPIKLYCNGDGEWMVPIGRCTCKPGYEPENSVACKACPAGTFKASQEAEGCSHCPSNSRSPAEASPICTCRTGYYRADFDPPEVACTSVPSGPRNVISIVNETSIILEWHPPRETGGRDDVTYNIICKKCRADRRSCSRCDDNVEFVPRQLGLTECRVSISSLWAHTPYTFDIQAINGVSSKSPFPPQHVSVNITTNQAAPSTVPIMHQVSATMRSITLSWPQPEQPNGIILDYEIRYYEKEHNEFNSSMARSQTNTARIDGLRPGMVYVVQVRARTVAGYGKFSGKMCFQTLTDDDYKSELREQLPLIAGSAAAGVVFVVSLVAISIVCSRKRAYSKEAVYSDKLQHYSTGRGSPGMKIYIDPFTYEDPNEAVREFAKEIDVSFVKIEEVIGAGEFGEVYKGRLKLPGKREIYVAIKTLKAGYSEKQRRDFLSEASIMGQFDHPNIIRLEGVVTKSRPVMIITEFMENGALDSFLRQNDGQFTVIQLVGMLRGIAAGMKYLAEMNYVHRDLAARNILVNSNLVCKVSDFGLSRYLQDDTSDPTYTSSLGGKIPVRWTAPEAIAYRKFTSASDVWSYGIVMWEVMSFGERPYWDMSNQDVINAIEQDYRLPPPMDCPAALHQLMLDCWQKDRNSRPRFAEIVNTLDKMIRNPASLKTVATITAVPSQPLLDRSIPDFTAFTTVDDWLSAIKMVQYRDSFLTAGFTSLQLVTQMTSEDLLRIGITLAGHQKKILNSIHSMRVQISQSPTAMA

With PGQRVYVVAES [SHH_Y316_R321S] as the sequence, how does the phosphorylation enrichment read?
Its phosphorylation enrichment is 0.695.

With PVDVAYRHGFF [PLEC_Y2967_R2969H_YF] as the sequence, how does the phosphorylation enrichment read?
The phosphorylation enrichment was 0.32.

IGEGTYRTVFK [CDK5_Y15_G16R] was tested. Which phosphorylation enrichment did it give?
The phosphorylation enrichment was 0.362.

For RNVFFYSFLLK [PTEN_Y178_Y174N_YF], which phosphorylation enrichment is on record?
The phosphorylation enrichment was 0.861.

How did the phosphorylation enrichment turn out when SLQFEYVHFGG [CDC14A_Y591_S589F_YF] was run?
Its phosphorylation enrichment is 0.612.

How did the phosphorylation enrichment turn out when ILIFHYAKGQP [MPZ_Y82_S78L] was run?
Its phosphorylation enrichment is 0.753.

HISGVYKLPPD [ANGPTL7_Y145_R140H] was tested. Which phosphorylation enrichment did it give?
Its phosphorylation enrichment is 0.556.

How did the phosphorylation enrichment turn out when KGRAGYTTVAV [RET_Y752] was run?
Its phosphorylation enrichment is 0.286.

With ATARPYRPYII [LRP5_Y1528] as the sequence, how does the phosphorylation enrichment read?
The phosphorylation enrichment was 0.457.

How did the phosphorylation enrichment turn out when PSGPAYRGAVP [ASAH1_Y43_T42A] was run?
Its phosphorylation enrichment is 0.74.

Which phosphorylation enrichment does the source give for ARGMEYLASKK [FGFR1_Y613] here?
Its phosphorylation enrichment is 0.356.

How did the phosphorylation enrichment turn out when RKETFYILSCR [GUCY2C_Y681_T682I] was run?
Its phosphorylation enrichment is 0.546.

For RLRKYHLGKYL [KLB_Y906_Y906H], which phosphorylation enrichment is on record?
The phosphorylation enrichment was 0.439.

How did the phosphorylation enrichment turn out when FLTQHYDAEPQ [ANG_Y38_K41E] was run?
Its phosphorylation enrichment is 0.413.

Which phosphorylation enrichment does the source give for TEQDPYNNIVH [MMUT_Y364_R369H] here?
The phosphorylation enrichment was 0.475.

How did the phosphorylation enrichment turn out when YSGDCYRIQGR [DDR2_Y741_Y740C] was run?
Its phosphorylation enrichment is 0.468.

Which phosphorylation enrichment does the source give for LKEIRYPPFTD [ALDH3B2_Y362_H361R_YF] here?
The phosphorylation enrichment was 0.883.

Which phosphorylation enrichment does the source give for DQIDTYELSGG [DNM1_Y354] here?
Its phosphorylation enrichment is 0.423.

For NHFKIYNLCAE [PTEN_Y68_YF], which phosphorylation enrichment is on record?
Its phosphorylation enrichment is 0.412.

Which phosphorylation enrichment does the source give for WQQQSYLDYGI [CTNNB1_Y30_S33Y] here?
The phosphorylation enrichment was 0.808.

For GLSAPYVKIHL [SYT2_Y309_D307A], which phosphorylation enrichment is on record?
Its phosphorylation enrichment is 0.426.

For KIVQDYLEKFY [MMP8_Y36_T32I], which phosphorylation enrichment is on record?
Its phosphorylation enrichment is 0.557.

GVRLFYRVRES [RB1_Y454_M457R_YF] was tested. Which phosphorylation enrichment did it give?
Its phosphorylation enrichment is 0.471.

Which phosphorylation enrichment does the source give for KVGRVYLFLQP [ITGA2B_Y360_E355K] here?
Its phosphorylation enrichment is 0.558.

Which phosphorylation enrichment does the source give for NRVEIYEKTVE [CYFIP1_Y108] here?
The phosphorylation enrichment was 0.713.

How did the phosphorylation enrichment turn out when VPLLEYFRDIF [CDAN1_Y712_YF] was run?
Its phosphorylation enrichment is 0.523.

For DDHFTYSRYPW [LY75_Y888], which phosphorylation enrichment is on record?
The phosphorylation enrichment was 4.66.

How did the phosphorylation enrichment turn out when LVSCTYQLARG [FGFR2_Y608] was run?
The phosphorylation enrichment was 0.536.

For IHFAIYLLKFS [ARMC9_Y107_YF], which phosphorylation enrichment is on record?
The phosphorylation enrichment was 0.561.

PPSLSYLSFEG [EXOSC3_Y143_A139P] was tested. Which phosphorylation enrichment did it give?
The phosphorylation enrichment was 0.556.

For LNARHYGGLTG [PGAM2_Y92_E89A], which phosphorylation enrichment is on record?
Its phosphorylation enrichment is 0.376.

KVNKIYHPDFI [LIG3_Y767_Y768H] was tested. Which phosphorylation enrichment did it give?
The phosphorylation enrichment was 0.39.

For QSPQLYKQMCI [DARS1_Y253], which phosphorylation enrichment is on record?
Its phosphorylation enrichment is 0.836.
